In paper PMC12504095 one finds stoichiometry N, Kd and percent DOPG-SEn-tPA complex (FITC-positive vesicles) data, which are given here for two substances.

Experiment [1] has as its target Streptococcus pyogenes alpha-enolase (SEn) (S. pyogenes strain AP53) (UniProt P69949). The experiment can be described thus: cryo-EM structure; SEn reconstituted in DOPG vesicles, extruded to small unilamellar vesicles; octamer in the bilayer.
For experiment [2] the target is unchanged. The experiment is described as follows: SPR; SEn immobilised on CM5 chip; tPA analyte 0-2000 nM in HBS-EP+ pH 7.4; 10 uL/min, 600 s association, 300 s dissociation; affinity (steady-state) fit. A general note: Surface plasmon resonance follows binding to a sensor surface in real time, without labels.
Experiment [3] has the same target. The experiment is described as follows: flow cytometry on DOPG vesicles; SEn-constituted DOPG vesicles (BSA-blocked) incubated with 0.8 uM tPA in PBS for 1 h; mouse anti-tPA and Alexa Fluor 488 anti-mouse IgG. (A flow cytometer gives signals particle by particle.)

For the substance “Streptococcus pyogenes alpha-enolase (SEn) (from UniProt P69949 1-435) (enzyme)”, the stoichiometry N in experiment [1] turned out to be 8.

“recombinant human tissue-type plasminogen activator (tPA) (enzyme)” yielded an equilibrium dissociation constant (Kd) in experiment [2] of 161 nM. For the same substance, the percent DOPG-SEn-tPA complex (FITC-positive vesicles) in experiment [3] came to 70%.

Broadly, the stoichiometry N is a count of units in the complex or per binding partner. One may read the Kd as the equilibrium constant for the complex coming apart. Low readings indicate tighter binding, high ones weaker binding.
